To fix the notation:
B1: THAP1; numbered along this chain (parent)
chain: MVQSCSAYGCKNRYDKDKPVSFHKFPLTRPSLCKEWEAAVRRKNFKPTKYSSICSEHFTPDCFKRECNNKLLKENAVPTIFLCTEPHDKKEDLLEPQEQLPPPPLPPPVSQVDAAIGLLMPPLQTPVNLSVFCDHNYTVEDTMHQRKRIHQLEQQVEKLRKKLKTAQQRCRRQERQLEKLKEVVHFQKEKDDVSERGYVILPNDYFEIVEVPA

In the supplement of paper PMC11811203 one finds THAP1 transcriptional activity data, which are given here for 83 variants.

Variants of B1 are the subject of the data set. Kind of data set: THAP1 transcriptional activity (GFP+/GFP- enrichment relative to wild-type constructs) (ratio to WT); higher = more THAP1 activity (PSMB5 reporter activation). The settings on record: with PSMB5 promoter-GFP reporter. The procedure, abridged:
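A lentiviral site-saturation library covering residues 2–213 of human THAP1, with each position changed to all 20 amino acids, was transduced in duplicate at MOI ~0.3 into THAP1-knockout HEK-293T cells with mClover3 knocked in at endogenous PSMB5. Five days later, BFP+ cells were sorted into GFP-dim and GFP-bright bins and variants were counted by Illumina sequencing of genomic DNA amplicons. Activity is the bright/dim read fold change averaged over replicates and divided by the mean of wild-type synonymous constructs.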
Regarding V193A, the THAP1 transcriptional activity came to 0.82.

Regarding P104Q, the THAP1 transcriptional activity turned out to be 1.88.

Turning to K73M, the THAP1 transcriptional activity was 0.543.

Take L100H: the THAP1 transcriptional activity was determined as 0.606.

In the case of L32A, the THAP1 transcriptional activity is 0.175.

Take L32P: the THAP1 transcriptional activity came out at 0.113.

Take H57P: the THAP1 transcriptional activity came to 0.0956.

In the case of C10K, the THAP1 transcriptional activity was 0.156.

On to E85T, for which the THAP1 transcriptional activity turned out to be 0.594.

In the case of E85F, the THAP1 transcriptional activity came out at 0.389.

Regarding E85A, the THAP1 transcriptional activity came to 0.937.

Consider G9A, for which the THAP1 transcriptional activity came to 0.209.

As to G9Y, the THAP1 transcriptional activity worked out at 0.149.

As to G9D, the THAP1 transcriptional activity turned out to be 0.196.

G9C: the THAP1 transcriptional activity worked out at 0.261.

On to F22V, for which the THAP1 transcriptional activity worked out at 0.115.

Regarding V139M, the THAP1 transcriptional activity was found to be 1.22.

As to C33S, the THAP1 transcriptional activity turned out to be 0.242.

For F63M, the THAP1 transcriptional activity came out at 0.089.

For the variant E35K, the THAP1 transcriptional activity amounted to 0.751.

Regarding E35G, the THAP1 transcriptional activity came to 0.183.

Turning to D141N, the THAP1 transcriptional activity came to 0.776.

For the variant D141K, the THAP1 transcriptional activity came out at 0.927.

For K34M, the THAP1 transcriptional activity was 0.397.

Consider K34F, for which the THAP1 transcriptional activity turned out to be 0.281.

Turning to K34W, the THAP1 transcriptional activity was 0.233.

Turning to K34H, the THAP1 transcriptional activity stood at 0.459.

As to N128C, the THAP1 transcriptional activity is 0.306.

Regarding H135D, the THAP1 transcriptional activity turned out to be 0.195.

On to Q173H, for which the THAP1 transcriptional activity worked out at 0.693.

As for Q173D, the THAP1 transcriptional activity was determined as 0.232.

Consider W36M, for which the THAP1 transcriptional activity came to 0.182.

As for W36R, the THAP1 transcriptional activity was determined as 0.107.

H23A: the THAP1 transcriptional activity was 0.116.

Consider H23E, for which the THAP1 transcriptional activity came to 0.123.

As to V156S, the THAP1 transcriptional activity was 0.331.

As to L119C, the THAP1 transcriptional activity was determined as 0.404.

Regarding L119G, the THAP1 transcriptional activity came to 0.614.

As for L119F, the THAP1 transcriptional activity is 0.425.

Turning to L71T, the THAP1 transcriptional activity was 0.52.

With L71N, the THAP1 transcriptional activity was 0.266.

For the variant L71W, the THAP1 transcriptional activity worked out at 0.259.

Regarding I53V, the THAP1 transcriptional activity is 0.447.

In the case of S6T, the THAP1 transcriptional activity worked out at 0.309.

As to S6V, the THAP1 transcriptional activity was found to be 0.541.

For the variant S6R, the THAP1 transcriptional activity came to 0.223.

In the case of S6C, the THAP1 transcriptional activity is 0.562.

Regarding R65D, the THAP1 transcriptional activity was determined as 0.388.

As for R65T, the THAP1 transcriptional activity turned out to be 0.797.

For the variant K158H, the THAP1 transcriptional activity was determined as 0.822.

As to K158L, the THAP1 transcriptional activity stood at 0.386.

As for T138Q, the THAP1 transcriptional activity is 0.224.

As to T138I, the THAP1 transcriptional activity is 0.274.

For T138D, the THAP1 transcriptional activity was 0.306.

Consider L93F, for which the THAP1 transcriptional activity is 0.989.

With V2I, the THAP1 transcriptional activity is 0.157.

Take V2D: the THAP1 transcriptional activity came to 0.178.

With Q145C, the THAP1 transcriptional activity was found to be 0.357.

For Q145M, the THAP1 transcriptional activity came to 0.767.

For the variant S130P, the THAP1 transcriptional activity was found to be 0.611.

Consider S130I, for which the THAP1 transcriptional activity came to 0.104.

Consider S130V, for which the THAP1 transcriptional activity stood at 0.196.

As to P121S, the THAP1 transcriptional activity is 0.441.

For the variant N69D, the THAP1 transcriptional activity worked out at 0.131.

N69W: the THAP1 transcriptional activity amounted to 0.0798.

Consider V209K, for which the THAP1 transcriptional activity is 0.98.

For E189F, the THAP1 transcriptional activity was found to be 0.853.

E189L: the THAP1 transcriptional activity was 1.33.

On to V77N, for which the THAP1 transcriptional activity is 0.195.

Regarding F25N, the THAP1 transcriptional activity turned out to be 0.108.

Regarding K147H, the THAP1 transcriptional activity amounted to 0.438.

E140S: the THAP1 transcriptional activity worked out at 1.48.

As for E140A, the THAP1 transcriptional activity is 1.46.

C133A: the THAP1 transcriptional activity turned out to be 0.667.

C133E: the THAP1 transcriptional activity was 0.936.

As to A38F, the THAP1 transcriptional activity worked out at 0.511.

As to A38N, the THAP1 transcriptional activity was determined as 1.08.

Turning to L118Y, the THAP1 transcriptional activity was 0.871.

As to L118R, the THAP1 transcriptional activity turned out to be 1.19.

L118K: the THAP1 transcriptional activity turned out to be 0.884.

Consider P103W, for which the THAP1 transcriptional activity is 0.806.

P103L: the THAP1 transcriptional activity was 1.61.

On to A166P, for which the THAP1 transcriptional activity is 0.211.
